Results as given in patent US20250230255A1 (BIOTHEUS, published 2025).
Like-named read-outs stand apart in the source and are kept apart here.

Assays:
[1] = target: T1, human CD39 (recombinant protein in solution) (human, UniProt P49961 38-478, limits assumed); experiment: BLI (ForteBio), method of Example 3, human CD39 in solution
T1 construct: also called soluble human CD39; soluble CD39
T1 sequence: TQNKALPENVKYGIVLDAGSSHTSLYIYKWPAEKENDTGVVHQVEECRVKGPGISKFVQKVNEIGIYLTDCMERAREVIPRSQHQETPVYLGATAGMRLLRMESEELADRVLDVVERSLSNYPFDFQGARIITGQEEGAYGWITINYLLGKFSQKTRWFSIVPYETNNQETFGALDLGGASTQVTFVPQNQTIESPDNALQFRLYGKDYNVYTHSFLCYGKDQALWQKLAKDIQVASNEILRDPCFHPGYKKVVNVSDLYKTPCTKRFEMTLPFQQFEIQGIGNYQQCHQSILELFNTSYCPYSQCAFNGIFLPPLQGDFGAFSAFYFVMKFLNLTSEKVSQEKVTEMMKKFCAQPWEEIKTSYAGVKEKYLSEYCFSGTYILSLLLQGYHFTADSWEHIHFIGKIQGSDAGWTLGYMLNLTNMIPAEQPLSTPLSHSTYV
Method: (§1) ForteBio affinity test was conducted according to the existing methods (Estep, P et al., High throughput solution based measurement of antibody-antigen affinity and affinity binding. MAbs, 2013.5 (2): p. 270-8). In short, the sensor is balanced offline in the analysis buffer for 30 min, and then tested online for 60 s to establish baseline. After that, the AHQ sensor is online loaded with the above-obtained purified antibody, and put into 100 nM human CD39 (SEQ ID NO: 28) for 5 min, and then transferred the sensor to PBS for dissociation for 5 min. A 1:1 binding model is used for the dynamic analysis.

[2] = target: PD-1 (of the Promega PD-1/PD-L1 blockade bioassay) (UniProt Q15116 25-288, limits assumed); experiment: cell-based or functional assay
Sequence of PD-1 (of the Promega PD-1/PD-L1 blockade bioassay) (Q15116 25-288 limits assumed): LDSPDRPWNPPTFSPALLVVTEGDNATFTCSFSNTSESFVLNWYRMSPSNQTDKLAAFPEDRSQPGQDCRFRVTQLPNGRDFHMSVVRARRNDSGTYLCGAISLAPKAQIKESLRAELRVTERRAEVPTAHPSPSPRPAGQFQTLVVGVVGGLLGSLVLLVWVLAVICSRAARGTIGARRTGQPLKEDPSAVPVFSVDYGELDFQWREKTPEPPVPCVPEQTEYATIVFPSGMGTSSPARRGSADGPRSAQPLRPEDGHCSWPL

human PD-1 on cells = target: T2, human PD-1 on cells (human, UniProt Q15116 25-288); experiment: flow cytometry on CHOS cells overexpressing human PD1, median fluorescence intensity PE-A
T2 construct: also called CHO-hPD1 cell
T2 sequence (Q15116 25-288 limits assumed): as above

cynomolgus PD-1 on cells = target: T3, cynomolgus PD-1 on cells (cynomolgus, UniProt Q15116 25-288 (human entry)); experiment: flow cytometry on CHOS cells overexpressing cynomolgus PD1, median fluorescence intensity PE-A
T3 construct: also called CHO-cynoPD1 cell
T3 chain: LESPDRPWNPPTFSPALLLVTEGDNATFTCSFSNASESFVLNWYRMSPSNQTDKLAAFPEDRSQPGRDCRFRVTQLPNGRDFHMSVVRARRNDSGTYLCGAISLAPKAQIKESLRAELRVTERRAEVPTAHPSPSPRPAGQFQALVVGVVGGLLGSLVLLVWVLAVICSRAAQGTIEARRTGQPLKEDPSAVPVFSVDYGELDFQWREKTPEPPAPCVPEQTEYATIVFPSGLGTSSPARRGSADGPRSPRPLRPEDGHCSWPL

human CD39 on cells [3] = target: T4, human CD39 on cells (human, UniProt P49961 1-510); experiment: cell-based or functional assay
T4 sequence: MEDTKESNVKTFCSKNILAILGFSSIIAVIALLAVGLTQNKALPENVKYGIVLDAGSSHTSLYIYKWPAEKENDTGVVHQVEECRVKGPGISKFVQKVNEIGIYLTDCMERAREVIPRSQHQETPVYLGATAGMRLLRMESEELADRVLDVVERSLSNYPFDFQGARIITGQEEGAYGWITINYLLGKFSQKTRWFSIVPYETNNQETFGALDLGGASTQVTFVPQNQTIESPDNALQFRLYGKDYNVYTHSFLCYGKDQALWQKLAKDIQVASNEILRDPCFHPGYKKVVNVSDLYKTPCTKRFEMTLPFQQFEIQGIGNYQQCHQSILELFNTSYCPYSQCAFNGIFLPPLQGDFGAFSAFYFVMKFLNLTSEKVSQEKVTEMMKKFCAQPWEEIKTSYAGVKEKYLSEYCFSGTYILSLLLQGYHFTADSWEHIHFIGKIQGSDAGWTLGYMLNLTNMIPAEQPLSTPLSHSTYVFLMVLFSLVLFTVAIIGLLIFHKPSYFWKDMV

human CD39 on cells [4] = target: T4, human CD39 on cells; experiment: cell-based or functional assay; remark: listed apart in the source
[5] = target: T1, human CD39 (recombinant protein in …); experiment: cell-based or functional assay
human CD39 on cells [6] = target: T4, human CD39 on cells; experiment: cell-based or functional assay; remark: listed apart in the source
human CD39 on cells [7] = target: T4, human CD39 on cells; experiment: cell-based or functional assay; remark: listed apart in the source
[8] = target: T1, human CD39 (recombinant protein in …); experiment: cell-based or functional assay; remark: listed apart in the source
human CD39 on cells [9] = target: T4, human CD39 on cells; experiment: flow cytometry on CHO-hCD39 cells, MFI titration
cynomolgus CD39 on cells = target: T5, cynomolgus CD39 on cells (cynomolgus, UniProt P49961 6-510 (human entry)); experiment: flow cytometry on CHO-cyCD39 cells, MFI titration
T5 construct: also called cyCD39; CHO-cyCD39 cells
T5 chain: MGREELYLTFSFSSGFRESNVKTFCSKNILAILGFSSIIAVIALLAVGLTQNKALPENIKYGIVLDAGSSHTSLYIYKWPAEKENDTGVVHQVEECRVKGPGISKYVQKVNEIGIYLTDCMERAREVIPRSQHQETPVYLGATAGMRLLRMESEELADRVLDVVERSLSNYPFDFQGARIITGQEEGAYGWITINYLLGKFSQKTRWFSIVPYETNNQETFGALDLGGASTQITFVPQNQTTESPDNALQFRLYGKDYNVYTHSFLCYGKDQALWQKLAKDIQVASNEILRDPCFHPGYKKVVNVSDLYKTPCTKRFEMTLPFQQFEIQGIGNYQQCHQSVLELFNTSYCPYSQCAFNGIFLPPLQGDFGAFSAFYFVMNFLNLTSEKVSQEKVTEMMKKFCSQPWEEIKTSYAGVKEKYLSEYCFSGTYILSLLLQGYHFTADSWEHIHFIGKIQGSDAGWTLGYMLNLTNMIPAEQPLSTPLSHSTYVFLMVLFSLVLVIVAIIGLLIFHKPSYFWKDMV

[10] = target: T1, human CD39 (recombinant protein in …); experiment: BLI (ForteBio), method of Example 3, human CD39 in solution; remark: listed apart in the source
Method: as §1
The humanized sequences are subjected to the humanized antibody vector construction, expression and purification according to the method described in Example 2. […] The purified humanized antibodies were subjected to the affinity test at protein level according to the method described in Example 3.

[11] = target: T1, human CD39 (recombinant protein in …); experiment: BLI (ForteBio), antibody loaded on AHQ sensor, 100 nM human CD39 in solution, 1:1 model
Method: as §1

B1: Bi307/308 (bispecific antibody, human IgG1, kappa, L234A L235A)
heavy: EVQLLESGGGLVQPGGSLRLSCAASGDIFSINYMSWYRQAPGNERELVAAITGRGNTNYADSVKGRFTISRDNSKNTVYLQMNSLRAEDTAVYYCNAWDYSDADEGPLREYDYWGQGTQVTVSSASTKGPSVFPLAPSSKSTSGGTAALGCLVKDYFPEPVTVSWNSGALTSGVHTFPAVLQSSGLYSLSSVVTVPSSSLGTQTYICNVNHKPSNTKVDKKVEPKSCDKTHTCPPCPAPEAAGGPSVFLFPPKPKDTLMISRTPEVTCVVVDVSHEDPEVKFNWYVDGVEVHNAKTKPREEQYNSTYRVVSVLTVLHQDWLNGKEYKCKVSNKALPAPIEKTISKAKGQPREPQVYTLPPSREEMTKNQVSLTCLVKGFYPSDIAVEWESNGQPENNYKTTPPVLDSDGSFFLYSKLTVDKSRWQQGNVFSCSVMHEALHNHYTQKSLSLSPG
light: EVQLLESGGGLVQPGGSLRLSCAVSRGTFSEYSMSWFRQAPGKEREFVTAISGFGHITHYADSVKGRFTISRDNSKNTVYLQMNSLRAEDTAVYYCAAAWQTSPRRMMQMAGSITWGQGTQVTVSSRTVAAPSVFIFPPSDEQLKSGTASVVCLLNNFYPREAKVQWKVDNALQSGNSQESVTEQDSKDSTYSLSSTLTLSKADYEKHKVYACEVTHQGLSSPVTKSFNRGEC
notes: also called bi-epitopic anti-CD39 antibody resembling IgG structure
Kd [1]: 0.351 nM | koff [1]: 0.000106 s⁻¹ | kon [1]: 303000 M⁻¹ s⁻¹

B2: anti-PD1 antibody ADI-54872 (antibody, V domains shown)
VH: EVQLVQSGAEVKKPGASVKVSCKASGYTFTEYYIYWVRQAPGQGLEWIGGINPSNGGTNFNEKFKPRVTMTVDTSTSTAYMELSSLRSEDTAVYYCTVRDFRFDKGFKYWGQGTLVTVSS
VL: DIVLTQSPATLSLSPGERATLSCRASKSVSTSGLNYVHWYQRKPGQAPRLLIYLGSYLDSGVPARFSGSGSGTDFTLTISSLEPEDFAVYYCQQSWELPLTFGGGTKVEIK
notes: also called anti-PD-1 monoclonal antibody molecule
EC50 (read off the curve) [2]: ~0.2 nM | EC50 (read off the curve) (human PD-1 on cells): ~10 nM | EC50 (read off the curve) (cynomolgus PD-1 on cells): ~10 nM

B3: I394 BMK (antibody, human IgG1, kappa, V domains shown)
VH: EVQLQQSGPELVKPGASVKMSCKASGYTFTDYNMHWVKQSHGRTLEWIGYIVPLNGGSTFNQKFKGRATLTVNTSSRTAYMELRSLTSEDSAAYYCARGGTRFAYWGQGTLVTVSA
VL: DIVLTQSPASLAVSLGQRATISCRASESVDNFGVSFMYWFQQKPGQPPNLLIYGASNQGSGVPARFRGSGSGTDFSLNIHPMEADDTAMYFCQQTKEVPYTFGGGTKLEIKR
notes: also called control antibody
EC50 of blocking CD39 enzyme activity in human CD39 overexpression cells (ATP, CellTiter-Glo) (human CD39 on cells [3]): 10.1 nM | EC50 of blocking CD39 enzyme activity in PBMC system (human CD39 on cells [4]): 10.1 nM | EC50 of blocking enzyme activity of soluble CD39 [5]: 3.09 nM | EC50 of blocking CD39 enzyme activity of human CD39 overexpression cells (human CD39 on cells [6]): 1.99 nM | EC50 of blocking CD39 enzyme activity in PBMC system (human CD39 on cells [7]): 0.338 nM | EC50 of blocking enzyme activity of soluble human CD39 [8]: 8.89 nM | EC50 (human CD39 on cells [9]): 4.76 nM | EC50 (cynomolgus CD39 on cells): 5.53 nM | Kd [10]: 1.5 nM | koff [10]: 0.000371 s⁻¹ | kon [10]: 245000 M⁻¹ s⁻¹ | Kd [11]: 0.855 nM | koff [11]: 0.0002 s⁻¹ | kon [11]: 285000 M⁻¹ s⁻¹

B4: anti-PD1×CD39 antibody (bispecific antibody, human IgG1, kappa)
heavy: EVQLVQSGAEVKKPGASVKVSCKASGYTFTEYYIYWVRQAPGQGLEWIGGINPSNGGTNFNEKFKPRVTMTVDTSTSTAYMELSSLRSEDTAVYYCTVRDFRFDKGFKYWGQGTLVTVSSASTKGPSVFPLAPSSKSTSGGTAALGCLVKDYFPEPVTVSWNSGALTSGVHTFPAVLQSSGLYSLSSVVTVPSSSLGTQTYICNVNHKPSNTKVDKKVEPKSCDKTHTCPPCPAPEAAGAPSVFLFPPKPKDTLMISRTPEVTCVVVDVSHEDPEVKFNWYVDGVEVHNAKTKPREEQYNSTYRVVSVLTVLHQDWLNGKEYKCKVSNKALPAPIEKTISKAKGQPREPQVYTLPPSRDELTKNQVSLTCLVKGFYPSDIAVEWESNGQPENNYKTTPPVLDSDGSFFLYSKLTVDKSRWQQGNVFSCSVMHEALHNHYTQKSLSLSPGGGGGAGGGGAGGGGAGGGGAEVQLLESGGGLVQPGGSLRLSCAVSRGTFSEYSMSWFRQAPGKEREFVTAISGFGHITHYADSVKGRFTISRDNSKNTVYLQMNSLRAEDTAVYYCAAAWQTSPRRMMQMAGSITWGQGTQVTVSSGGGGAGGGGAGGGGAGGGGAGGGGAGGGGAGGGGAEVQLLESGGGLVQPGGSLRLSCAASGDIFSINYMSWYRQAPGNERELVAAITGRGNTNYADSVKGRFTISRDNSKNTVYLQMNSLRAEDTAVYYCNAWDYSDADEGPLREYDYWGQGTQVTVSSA
light: DIVLTQSPATLSLSPGERATLSCRASKSVSTSGLNYVHWYQRKPGQAPRLLIYLGSYLDSGVPARFSGSGSGTDFTLTISSLEPEDFAVYYCQQSWELPLTFGGGTKVEIKRTVAAPSVFIFPPSDEQLKSGTASVVCLLNNFYPREAKVQWKVDNALQSGNSQESVTEQDSKDSTYSLSSTLTLSKADYEKHKVYACEVTHQGLSSPVTKSFNRGEC
notes: also called Anti-PD1xCD39 antibody
EC50 (read off the curve) [2]: ~0.3 nM | EC50 (read off the curve) (human PD-1 on cells): ~10 nM | EC50 (read off the curve) (cynomolgus PD-1 on cells): ~20 nM
